In the supplement of paper PMC9112550, “Optimization of the antimicrobial peptide Bac7 by deep mutational scanning” (BMC Biology, 2022):

System: Escherichia coli TOP10
Assay: shrunken log2 fold change of peptide-encoding DNA abundance (4.5 h post-induction vs induction); higher = less antimicrobial activity (less host growth inhibition)
Conditions: time post-induction: 4.5 h; library: site-saturation at positions 5, 18, 19, 20
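Note: peptides expressed intracellularly from a pBAD plasmid library in pooled LB shake-flask culture, induced with 0.3% L-arabinose, DNA abundance read by NGS, three biological replicates, DESeq2 with apeglm shrinkage.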

RRIRPRPPRLPRPRPRPHMKPRP
shrunken log2 fold change: 1.08

RRIRPRPPRLPRPRPRPHMLPRP
shrunken log2 fold change: -0.226

RRIRPRPPRLPRPRPRPHNQPRP
shrunken log2 fold change: -0.378

RRIRPRPPRLPRPRPRPHNVPRP
shrunken log2 fold change: -0.104

RRIRPRPPRLPRPRPRPHPDPRP
shrunken log2 fold change: -0.0791

RRIRPRPPRLPRPRPRPHPWPRP
shrunken log2 fold change: 0.0817

RRIRPRPPRLPRPRPRPHQPPRP
shrunken log2 fold change: -0.129

RRIRPRPPRLPRPRPRPHRCPRP
shrunken log2 fold change: -0.299

RRIRPRPPRLPRPRPRPHTLPRP
shrunken log2 fold change: -0.195

RRIRPRPPRLPRPRPRPHTRPRP
shrunken log2 fold change: 0.171

RRIRPRPPRLPRPRPRPHTWPRP
shrunken log2 fold change: -0.0512

RRIRPRPPRLPRPRPRPHVSPRP
shrunken log2 fold change: 0.00841

RRIRPRPPRLPRPRPRPHVTPRP
shrunken log2 fold change: -0.0437

RRIRPRPPRLPRPRPRPIALPRP
shrunken log2 fold change: -0.0697

RRIRPRPPRLPRPRPRPIARPRP
shrunken log2 fold change: -0.0116

RRIRPRPPRLPRPRPRPICVPRP
shrunken log2 fold change: -0.215

RRIRPRPPRLPRPRPRPIDRPRP
shrunken log2 fold change: -0.00145

RRIRPRPPRLPRPRPRPIDWPRP
shrunken log2 fold change: 0.272

RRIRPRPPRLPRPRPRPIEDPRP
shrunken log2 fold change: -0.0617

RRIRPRPPRLPRPRPRPIEEPRP
shrunken log2 fold change: -0.0376

RRIRPRPPRLPRPRPRPIFPPRP
shrunken log2 fold change: 0.0704

RRIRPRPPRLPRPRPRPIGGPRP
shrunken log2 fold change: 0.00483

RRIRPRPPRLPRPRPRPIGVPRP
shrunken log2 fold change: 0.108

RRIRPRPPRLPRPRPRPIHFPRP
shrunken log2 fold change: -0.241

RRIRPRPPRLPRPRPRPIIFPRP
shrunken log2 fold change: -0.0799

RRIRPRPPRLPRPRPRPIIHPRP
shrunken log2 fold change: -0.707

RRIRPRPPRLPRPRPRPIISPRP
shrunken log2 fold change: -0.189

RRIRPRPPRLPRPRPRPINEPRP
shrunken log2 fold change: -0.54

RRIRPRPPRLPRPRPRPIRLPRP
shrunken log2 fold change: 0.0338

RRIRPRPPRLPRPRPRPISIPRP
shrunken log2 fold change: -0.109

RRIRPRPPRLPRPRPRPITEPRP
shrunken log2 fold change: -0.0543

RRIRPRPPRLPRPRPRPITQPRP
shrunken log2 fold change: -0.194

RRIRPRPPRLPRPRPRPIVFPRP
shrunken log2 fold change: -0.293

RRIRPRPPRLPRPRPRPIVTPRP
shrunken log2 fold change: -0.164

RRIRPRPPRLPRPRPRPIWEPRP
shrunken log2 fold change: 0.0926

RRIRPRPPRLPRPRPRPIYIPRP
shrunken log2 fold change: -0.36

RRIRPRPPRLPRPRPRPKAAPRP
shrunken log2 fold change: 0.386

RRIRPRPPRLPRPRPRPKAFPRP
shrunken log2 fold change: -0.198

RRIRPRPPRLPRPRPRPKAHPRP
shrunken log2 fold change: 0.0759

RRIRPRPPRLPRPRPRPKALPRP
shrunken log2 fold change: 0.461

RRIRPRPPRLPRPRPRPKAWPRP
shrunken log2 fold change: -0.0274

RRIRPRPPRLPRPRPRPKCLPRP
shrunken log2 fold change: -0.0739

RRIRPRPPRLPRPRPRPKCQPRP
shrunken log2 fold change: 0.0931

RRIRPRPPRLPRPRPRPKDIPRP
shrunken log2 fold change: -0.801

RRIRPRPPRLPRPRPRPKDPPRP
shrunken log2 fold change: 0.165

RRIRPRPPRLPRPRPRPKDYPRP
shrunken log2 fold change: -0.0674

RRIRPRPPRLPRPRPRPKFRPRP
shrunken log2 fold change: -0.122

RRIRPRPPRLPRPRPRPKGLPRP
shrunken log2 fold change: 0.062

RRIRPRPPRLPRPRPRPKHVPRP
shrunken log2 fold change: -0.137

RRIRPRPPRLPRPRPRPKKTPRP
shrunken log2 fold change: -0.107

RRIRPRPPRLPRPRPRPKLMPRP
shrunken log2 fold change: 0.121

RRIRPRPPRLPRPRPRPKLPPRP
shrunken log2 fold change: 0.298

RRIRPRPPRLPRPRPRPKLWPRP
shrunken log2 fold change: 0.683

RRIRPRPPRLPRPRPRPKMGPRP
shrunken log2 fold change: -0.0348

RRIRPRPPRLPRPRPRPKPNPRP
shrunken log2 fold change: 0.356

RRIRPRPPRLPRPRPRPKPVPRP
shrunken log2 fold change: 0.154

RRIRPRPPRLPRPRPRPKQRPRP
shrunken log2 fold change: 0.186

RRIRPRPPRLPRPRPRPKQWPRP
shrunken log2 fold change: -0.22

RRIRPRPPRLPRPRPRPKRCPRP
shrunken log2 fold change: -0.0846

RRIRPRPPRLPRPRPRPKRGPRP
shrunken log2 fold change: 0.484

RRIRPRPPRLPRPRPRPKRIPRP
shrunken log2 fold change: -0.155

RRIRPRPPRLPRPRPRPKRQPRP
shrunken log2 fold change: 0.0603

RRIRPRPPRLPRPRPRPKRVPRP
shrunken log2 fold change: 0.0499

RRIRPRPPRLPRPRPRPKRYPRP
shrunken log2 fold change: 0.281

RRIRPRPPRLPRPRPRPKSGPRP
shrunken log2 fold change: 0.356

RRIRPRPPRLPRPRPRPKTRPRP
shrunken log2 fold change: 0.382

RRIRPRPPRLPRPRPRPKYFPRP
shrunken log2 fold change: -0.693

RRIRPRPPRLPRPRPRPLAAPRP
shrunken log2 fold change: 0.767

RRIRPRPPRLPRPRPRPLAKPRP
shrunken log2 fold change: 0.261

RRIRPRPPRLPRPRPRPLAQPRP
shrunken log2 fold change: 0.192

RRIRPRPPRLPRPRPRPLARPRP
shrunken log2 fold change: 0.388

RRIRPRPPRLPRPRPRPLCNPRP
shrunken log2 fold change: -0.05

RRIRPRPPRLPRPRPRPLCSPRP
shrunken log2 fold change: -0.431

RRIRPRPPRLPRPRPRPLDCPRP
shrunken log2 fold change: 0.0595

RRIRPRPPRLPRPRPRPLDTPRP
shrunken log2 fold change: 1

RRIRPRPPRLPRPRPRPLEWPRP
shrunken log2 fold change: -0.00787

RRIRPRPPRLPRPRPRPLEYPRP
shrunken log2 fold change: -0.56

RRIRPRPPRLPRPRPRPLGNPRP
shrunken log2 fold change: -0.173

RRIRPRPPRLPRPRPRPLINPRP
shrunken log2 fold change: -0.298

RRIRPRPPRLPRPRPRPLIPPRP
shrunken log2 fold change: -0.19

RRIRPRPPRLPRPRPRPLKWPRP
shrunken log2 fold change: 0.398

RRIRPRPPRLPRPRPRPLMMPRP
shrunken log2 fold change: -0.204

RRIRPRPPRLPRPRPRPLMVPRP
shrunken log2 fold change: -0.0973

RRIRPRPPRLPRPRPRPLNMPRP
shrunken log2 fold change: -0.432

RRIRPRPPRLPRPRPRPLNWPRP
shrunken log2 fold change: 0.0566

RRIRPRPPRLPRPRPRPLPHPRP
shrunken log2 fold change: -0.206

RRIRPRPPRLPRPRPRPLPNPRP
shrunken log2 fold change: 0.0283

RRIRPRPPRLPRPRPRPLPWPRP
shrunken log2 fold change: 0.592

RRIRPRPPRLPRPRPRPLQGPRP
shrunken log2 fold change: 0.13

RRIRPRPPRLPRPRPRPLVPPRP
shrunken log2 fold change: 0.125

RRIRPRPPRLPRPRPRPLWRPRP
shrunken log2 fold change: 0.446

RRIRPRPPRLPRPRPRPMAMPRP
shrunken log2 fold change: -0.146

RRIRPRPPRLPRPRPRPMAQPRP
shrunken log2 fold change: 0.177

RRIRPRPPRLPRPRPRPMCAPRP
shrunken log2 fold change: 0.159

RRIRPRPPRLPRPRPRPMDCPRP
shrunken log2 fold change: -0.00833

RRIRPRPPRLPRPRPRPMEAPRP
shrunken log2 fold change: 0.177

RRIRPRPPRLPRPRPRPMEFPRP
shrunken log2 fold change: 0.00564

RRIRPRPPRLPRPRPRPMFMPRP
shrunken log2 fold change: 0.0765

RRIRPRPPRLPRPRPRPMGHPRP
shrunken log2 fold change: -0.145

RRIRPRPPRLPRPRPRPMIYPRP
shrunken log2 fold change: -0.113

RRIRPRPPRLPRPRPRPMKCPRP
shrunken log2 fold change: -0.00631

RRIRPRPPRLPRPRPRPMKHPRP
shrunken log2 fold change: 0.0348

RRIRPRPPRLPRPRPRPMLLPRP
shrunken log2 fold change: 0.0229

RRIRPRPPRLPRPRPRPMMQPRP
shrunken log2 fold change: -0.369

RRIRPRPPRLPRPRPRPMNYPRP
shrunken log2 fold change: -0.736

RRIRPRPPRLPRPRPRPMPLPRP
shrunken log2 fold change: -0.0538

RRIRPRPPRLPRPRPRPMPPPRP
shrunken log2 fold change: 0.194

RRIRPRPPRLPRPRPRPMQPPRP
shrunken log2 fold change: 0.234

RRIRPRPPRLPRPRPRPMQSPRP
shrunken log2 fold change: 0.524
